{"source": "patent US20140057807A1", "about": "(UNIVERSITY OF CHICAGO, published 2014)", "key": {"[1]": {"target": "T1, yeast small ubiquitin-like modifier protein (yeast, UniProt Q12306 3-98 = SUMO)", "T1 construct": "GST fusion in most phage ELISAs, His-tagged or tag-cleaved elsewhere; also called ySUMO; yeast SUMO", "T1 sequence (Q12306 3-98 limits assumed)": "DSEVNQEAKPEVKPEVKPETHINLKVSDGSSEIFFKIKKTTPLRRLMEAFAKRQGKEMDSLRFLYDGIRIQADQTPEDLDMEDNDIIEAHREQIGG", "assay": "titration phage ELISA: His-tagged target captured via BT-Tris-NTA on NeutrAvidin-coated wells, serial 5-fold dilutions of phage supernatant", "procedure,_shortened": "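Phage ELISA with phage-containing supernatant from XL21 cells grown with 0.2 mM IPTG and helper phage K07. His-tagged target (50 nM) was complexed with BT-Tris NTA on NeutrAvidin-coated, BSA-blocked wells for 30 minutes. A 30% phage supernatant and serial 5-fold dilutions in TBS/0.5% BSA were incubated for 30 minutes at room temperature. Detection used anti-M13-HRP and TMB, quenched with H₂SO₄, with absorbance at 450 nm scaled to 1 cm path-length.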"}, "[2]": {"target": "T1, yeast small ubiquitin-like modifier …", "assay": "titration phage ELISA", "protocol": "hSUMO1-binding cradle molecules had varied ability to discriminate hSUMO1 and ySUMO as assessed by phage ELISA (FIGS. 25A and 26A).\nFor phage amplification, E. coli XL1-Blue cells transformed with the LacI containing plasmid pMCSG21 (Stols, et al., Protein Express. Purif. (2007) 53:396-403) (termed “XL21” hereafter) were used. Cradle molecule displaying phage were prepared by growing XL21 cells transfected with phagemid of individual clones in the presence of 0.2 mM IPTG and helper phage K07 (Koide, A., and Koide, S., supra, 2007; Sidhu, et al., supra, 2000). Cultures were then centrifuged and phage containing supernatant used for ELISA assays. All incubations were at room temperature. In all instances except for the phage titration experiment used to test hSUMO1-binding cradle molecule specificity (FIG. 26), wells of a 96-well Microlon© (Greiner) ELISA plate were treated with a 2 μg/mL solution of a GST-fusion of the appropriate target protein, or GST alone in 50 mM Tris Cl buffer containing 150 mM NaCl, pH 7.5 (TBS) and incubated for 1 hour followed by blocking with 0.5% BSA in TBS for 1 hour."}, "[3]": {"target": "T1, yeast small ubiquitin-like modifier …", "assay": "SPR (Biacore 2000), monobody immobilised via His-tag on NTA surface, ySUMO flowed over it", "protocol": "(§1) Cradle molecules purified as described above were immobilized via His-tag to an NTA surface using a Biacore™ 2000 instrument so that the theoretical maximum response (Rₘₐₓ) from target binding was 100-200 RU. Target protein at varying concentrations was then flowed over the surface at a flow rate of 30 μL/min and the binding signal recorded. Fitting of kinetic traces was carried out using the BIAevaluation software. For equilibrium experiments, the equilibrium binding response was recorded for multiple target concentrations and fit to a simple 1:1 saturation binding curve."}, "[4]": {"target": "T1, yeast small ubiquitin-like modifier …", "assay": "SPR, fit of the traces to a 1:1 binding model [panel D]", "protocol": "as §1"}, "[5]": {"target": "T1, yeast small ubiquitin-like modifier …", "assay": "SPR (monobody on the chip via His-tag, target flowed); estimated Kd", "protocol": "as §1"}, "[6]": {"target": "T1, yeast small ubiquitin-like modifier …", "assay": "SPR", "from_the_text": "Such high selectivity was unexpected, because the SIM-binding site is the most highly conserved surface between ySUMO and hSUMO proteins (FIG. 16A). […] Thus, it was expected that generating FnIII domain variants that bind to hSUMOs in a mode similar to the ySUMO-binding FnIII domain variants would yield clones with higher isoform selectivity toward hSUMOs.\nas §1"}, "[7]": {"target": "T1, yeast small ubiquitin-like modifier …", "assay": "SPR", "protocol": "as §1", "remark": "listed apart in the source"}, "[8]": {"target": "T1, yeast small ubiquitin-like modifier …", "assay": "SPR; column 'Estimated Kd (nM)'", "procedure,_shortened": "(§2)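 Purified His-tagged molecules were captured on an NTA surface of a Biacore 2000 to reach a theoretical maximum target response of 100-200 RU, and target at varying concentrations was flowed at 30 μL/min. Estimated Kd values come from surface plasmon resonance binding signals, analysed either by kinetic fitting in BIAevaluation software or by fitting equilibrium responses to a saturation binding curve with 1:1 binding.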"}, "[9]": {"target": "T2, human Abl SH2 domain (human, UniProt P00519 112-232, limits assumed)", "T2 construct": "domain: SH2 domain; poly-histidine tagged in selection; tag cleaved for SPR and crystals; also called Ab1SH2; SH2 domain of Abl kinase", "T2 sequence (looked up)": "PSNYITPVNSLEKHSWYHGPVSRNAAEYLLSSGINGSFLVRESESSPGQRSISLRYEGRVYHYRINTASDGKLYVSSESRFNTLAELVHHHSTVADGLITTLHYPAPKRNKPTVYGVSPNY", "assay": "Kd (nM) column of the drawn table; the method for this clone is not stated (SH13 came directly from the phage display library)"}, "[10]": {"target": "T2, human Abl SH2 domain", "assay": "method not given"}, "[11]": {"target": "T1, yeast small ubiquitin-like modifier …", "assay": "SPR; column 'Estimated Kd (nM)' [Continued]", "procedure,_shortened": "as §2"}, "[12]": {"target": "T2, human Abl SH2 domain", "assay": "phage display selection hit, BL2 library"}}}
{"binder": "hS1MB-7 (designed binder) VSSVPTKLEVVAATPTSLLISWDASSSSVSYYEITYGETGGNSPVQEFTVPGSSSTATISGLSPGVDYTITVIAFYSHDDIYISDSPSSINYRT", "values": [{"measurement": "binding result", "setting": "[1]", "result": "no binding"}, {"measurement": "fold weaker binding to ySUMO than to hSUMO1", "setting": "[2]", "result": "≥ 100", "unit": "fold"}]}
{"binder": "hS1MB-16 (designed binder) VSSVPTKLEVVAATPTSLLISWDASSSSVSHYDITYGETGGNSPVQEFTVPGSSSTATISGLSPGVDYTITVYAYNSHDDIFIAYSPSSINYRT", "values": [{"measurement": "fold weaker binding to ySUMO than to hSUMO1", "setting": "[2]", "result": "≥ 100", "unit": "fold"}]}
{"binder": "hS1MB-23 (designed binder) VSSVPTKLEVVAATPTSLLISWDASSSSVSHYEITYGETGGNSPVQEFTVPGSSSTATISGLSPGVDYTITVYAYYSHDDIFYAFSPSSINYRT", "values": [{"measurement": "fold weaker binding to ySUMO than to hSUMO1", "setting": "[2]", "result": "≥ 100", "unit": "fold"}]}
{"binder": "ySMB-1 (designed binder, it may hold only the diversified positions and not the whole FnIII domain; BC and DE loops are polyserine; also called monobody ySMB-1; FnIII domain variant ySMB-1) VSSVPTKLEVVAATPTSLLISWDASSSSVSYYRITYGETGGNSPVQEFTVPGSSSTATISGLSPGVDYTITVYAYYSYYDLYYSYSPSSINYRT", "values": [{"measurement": "Kd", "setting": "[3]", "result": 72, "unit": "nM"}, {"measurement": "koff", "setting": "[4]", "result": 0.09, "unit": "s⁻¹"}, {"measurement": "kon", "setting": "[4]", "result": "1.1e+06", "unit": "M⁻¹ s⁻¹"}, {"measurement": "Kd", "setting": "[5]", "result": 72, "unit": "nM"}, {"measurement": "Kd", "setting": "[6]", "result": 82, "unit": "nM"}]}
{"binder": "ySMB-2 (designed binder) VSSVPTKLEVVAATPTSLLISWDASSSSVSYYRITYGETGGNSPVQEFTVPGSSSTATISGLSPGVDYTITVYAYWTYEWGYMYDSPISINYRT", "values": [{"measurement": "Kd", "setting": "[7]", "result": 45, "unit": "nM"}, {"measurement": "Kd", "setting": "[8]", "result": 45, "unit": "nM"}, {"measurement": "koff", "setting": "[4]", "result": 0.04, "unit": "s⁻¹"}, {"measurement": "kon", "setting": "[4]", "result": 970000, "unit": "M⁻¹ s⁻¹"}]}
{"binder": "SH13 (designed binder, also called SH13 monobody) VSSVPTKLEVVAATPTSLLISWDAPAVDFYVYLITYGETGGNSPVQEFTVPGSKSTATISGLSPGVDYTITVYGYSDSWNWPYSPISINYRT", "values": [{"measurement": "Kd", "setting": "[9]", "result": 6800, "unit": "nM"}, {"measurement": "Kd", "setting": "[10]", "result": "~4000", "unit": "nM"}]}
{"binder": "ySMB-53 (designed binder, variable loops only; library YSGW) VSSVPTKLEVVAATPTSLLISWDASSSSVSYYRITYGETGGNSPVQEFTVPGSSSTATISGLSPGVDYTITVYAYQSFGYNEYWSSGSPISINYRT", "values": [{"measurement": "Kd", "setting": "[11]", "result": 380, "unit": "nM"}]}
{"binder": "ySMB-54 (designed binder, variable loops only; library YSGW) VSSVPTKLEVVAATPTSLLISWDAGYDESVMYYRITYGETGGNSPVQEFTVPGSSSTATISGLSPGVDYTITVYAYREYDGLYYSYSPISINYRT", "values": [{"measurement": "Kd", "setting": "[11]", "result": 950, "unit": "nM"}]}
{"binder": "SEQ ID NO 82 (designed binder) VSSVPTKLEVVAATPTSLLISWDAPAVTVDFYVITYGETGGNSPVQEFTVPGSKSTATISGLSPGVDYTITVYANWAYSYRYSPISINYRT", "values": [{"measurement": "binding result", "setting": "[12]", "result": "binds"}]}
{"binder": "SEQ ID NO 83 (designed binder) VSSVPTKLEVVAATPTSLLISWDAPAVTVFYYVITYGETGGNSPVQEFEVPGSKSTATISGLSPGVDYTITVYANYPYSYMYSPISINYRT", "values": [{"measurement": "binding result", "setting": "[12]", "result": "binds"}]}
{"binder": "SEQ ID NO 84 (designed binder) VSSVPTKLEVVAATPTSLLISWDAPAVTVDYYLITYGETGGNSPVQEFTVPGSKSTATISGLSPGVDYTITVYAWDPYWDVMSPISINYRT", "values": [{"measurement": "binding result", "setting": "[12]", "result": "binds"}]}
{"binder": "GG3 (designed binder) VSSVPTKLEVVAATPTSLLISWDAPAVTVVHYVITYGETGGNSPVQEFTVPGSKSTATISGLSPGVDYTITVYALLSSSHWVYESPISINYRT", "values": [{"measurement": "binding result", "setting": "[12]", "result": "binds"}]}
{"binder": "SEQ ID NO 81 (designed binder) VSSVPTKLEVVAATPTSLLISWDAPAVTVDLYLITYGETGGNSPVQEFKVPGSKSTATISGLSPGVDYTITVYAGSDYYYYYQGAYWSPISINYRT", "values": [{"measurement": "binding result", "setting": "[12]", "result": "binds"}]}
{"binder": "SEQ ID NO 85 (designed binder) VSSVPTKLEVVAATPTSLLISWDAPAVTVDLYVITYGETGGNSPVQEFTVPGSKSTATISGLSPGVDYTITVYAGWGNWELGYSWSSPISINYRT", "values": [{"measurement": "binding result", "setting": "[12]", "result": "binds"}]}
